Measurements taken from patent US20260116960A1 (SHANGHAI HONGCHENG BIOPHARMACEUTICAL, published 2026).

Key:
[1] = biological target: T1, human VEGF165-his protein (Acro, Catalog No. VE5-H5248) (human, UniProt P15692-4 27-191); assay: ELISA, plate coated with human VEGF165-his
T1 construct: Bought protein; also called hVEGF165-His; VEGFA; not shown: his tag
Description: ELISA was used to determine the activity of the trispecific antibodies binding to the PD-1 protein: 1 μg/mL human PD-1 protein (Acro, Catalog No.: PD1-H5221) was used to coat a high-adsorption 96-well ELISA plate and incubated at 4° C. overnight. On the next day, the plate was washed three times with PBST solution and blocked with 1% BSA-PBS solution at 37° C. for 1 hour. At the same time, 3-fold gradient dilutions of the antibody were prepared with 1% BSA-PBS solution, with a starting concentration of 10 nM. The antibodies of each gradient concentration were added to the blocked 96-well ELISA plate at 100 µL/well in triplicate and incubated at 37° C. for 1 hour. The plate was then washed three times with 0.05% PBST solution, and 100 μL/well of HRP-labeled secondary antibody (Sigma, Catalog No.: A0170) diluted at 1:5000 was added to the ELISA plate and incubated at 37° C. for 1 hour. The plate was washed three times with 0.05% PBST solution and developed with TMB. The absorbance of the 96-well ELISA plate at 450 nm was detected by an ELISA reader. The OD₄₅₀ value was fitted using a four-parameter model to calculate the EC₅₀ value of each antibody binding to PD-1.
The binding activity of the trispecific antibodies to VEGFA protein was detected by ELISA method as described in Section 2.1. The used human VEGF165-his protein was purchased from Acro, Catalog No.: VE5-H5248.

[2] = biological target: T2, human CTLA-4 protein (Acro, Catalog No. CT4-H52H9) (human, UniProt P16410 36-161); assay: ELISA, plate coated with human CTLA-4 protein
T2 construct: Bought protein
T2 sequence (P16410 36-161 limits assumed): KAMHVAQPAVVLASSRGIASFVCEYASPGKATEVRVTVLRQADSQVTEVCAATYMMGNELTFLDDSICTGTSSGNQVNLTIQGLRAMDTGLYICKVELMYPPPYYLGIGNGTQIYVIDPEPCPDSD

[3] = biological target: T3, human CTLA-4 on the cell surface (human, UniProt P16410 36-223); assay: flow cytometry, CHO-hCTLA-4 cells, batch FACS#3
T3 construct: whole, on cells; also called CHO-hCTLA-4 cells; CHOK1-hCTLA4 cells
T3 sequence (P16410 36-223): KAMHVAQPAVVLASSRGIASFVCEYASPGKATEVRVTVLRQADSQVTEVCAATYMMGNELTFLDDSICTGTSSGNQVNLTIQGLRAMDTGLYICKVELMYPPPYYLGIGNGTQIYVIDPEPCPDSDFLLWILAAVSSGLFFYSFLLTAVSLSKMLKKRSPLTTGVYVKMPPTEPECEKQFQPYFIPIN

[4] = biological target: T4, human PD-1 on the cell surface (human, UniProt Q15116 25-288); assay: flow cytometry competition, 293T-hPD-1 cells, biotin-human PD-L1
T4 construct: whole, on cells; also called cell surface PD-1
T4 sequence (Q15116 25-288): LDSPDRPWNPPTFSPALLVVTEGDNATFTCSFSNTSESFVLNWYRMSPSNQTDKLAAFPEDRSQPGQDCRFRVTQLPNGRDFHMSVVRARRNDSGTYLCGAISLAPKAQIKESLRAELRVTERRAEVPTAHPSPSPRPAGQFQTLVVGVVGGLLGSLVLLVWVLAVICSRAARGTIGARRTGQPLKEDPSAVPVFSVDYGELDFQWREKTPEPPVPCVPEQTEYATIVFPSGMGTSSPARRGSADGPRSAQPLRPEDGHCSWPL

[5] = biological target: T3, human CTLA-4 on the cell surface; assay: flow cytometry competition, 293T-hPD-1-hCTLA-4 cells (PD-1 co-expressed), biotin-human CD80
[6] = biological target: T5, Biotinylated Human VEGF165 (Acro, Catalog No. VE5-H82Q0) (human, UniProt P15692-4 27-191, biotinylated (site not stated)); assay: flow cytometry: antibody titrated on CHOK1-hCTLA4 cells, then mixture of hPD1-mFc and biotin-hVEGF165; PE streptavidin signal
T5 construct: Bought protein; also called Biotinylated-hVEGF165; Biotin-hVEGF165
T5 sequence (P15692 other isoform, or with tags, fused parts or gaps limits assumed): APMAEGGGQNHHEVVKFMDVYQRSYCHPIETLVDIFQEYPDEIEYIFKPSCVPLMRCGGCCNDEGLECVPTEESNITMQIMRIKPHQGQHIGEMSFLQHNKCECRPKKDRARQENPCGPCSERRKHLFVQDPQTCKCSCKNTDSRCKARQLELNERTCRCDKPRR
Description: CHOK1-hCTLA4 cells were obtained by trypsin digestion, washed twice with PBS containing 2% FBS (FACS buffer), and the cell density was adjusted to about 8×10⁵ cells/ml. 200 μL/well of the cells were added to a 96-well U-bottom plate. After centrifugation at 300 g for 5 minutes, the supernatant was discarded and 100 μL of antibody solution serially diluted with FACS buffer was added in triplicate (with starting concentration of 200 nM, 3-fold serial dilution, and the same volume of FACS buffer was used as a negative control). Mixed well and incubated at 4° C. for 60 min. After washing the plate three times with FACS buffer, a mixture consisting of 1 μg/mL hPD1-mFc (Acro, Catalog No.: PD1-H5255) and 1 μg/mL Biotin-hVEGF165 in a 1:1 volume ratio was added to each well at 100 μL/well to detect the simultaneously binding activity of the trispecific antibodies to VEGF and PD-1 after binding to cell surface CTLA-4. […] After washing the plate three times with FACS buffer, 100 μL/well of PBS solution was added to resuspend the cells, and the fluorescence signal was detected on a flow cytometer. The binding activity was fitted using a four-parameter model, and the EC₅₀ value of each antibody was calculated.

T1 sequence (P15692 other isoform, or with tags, fused parts or gaps limits assumed): as above

B1: HC010-F9 (trispecific antibody, human IgG4 S228P, kappa)
heavy: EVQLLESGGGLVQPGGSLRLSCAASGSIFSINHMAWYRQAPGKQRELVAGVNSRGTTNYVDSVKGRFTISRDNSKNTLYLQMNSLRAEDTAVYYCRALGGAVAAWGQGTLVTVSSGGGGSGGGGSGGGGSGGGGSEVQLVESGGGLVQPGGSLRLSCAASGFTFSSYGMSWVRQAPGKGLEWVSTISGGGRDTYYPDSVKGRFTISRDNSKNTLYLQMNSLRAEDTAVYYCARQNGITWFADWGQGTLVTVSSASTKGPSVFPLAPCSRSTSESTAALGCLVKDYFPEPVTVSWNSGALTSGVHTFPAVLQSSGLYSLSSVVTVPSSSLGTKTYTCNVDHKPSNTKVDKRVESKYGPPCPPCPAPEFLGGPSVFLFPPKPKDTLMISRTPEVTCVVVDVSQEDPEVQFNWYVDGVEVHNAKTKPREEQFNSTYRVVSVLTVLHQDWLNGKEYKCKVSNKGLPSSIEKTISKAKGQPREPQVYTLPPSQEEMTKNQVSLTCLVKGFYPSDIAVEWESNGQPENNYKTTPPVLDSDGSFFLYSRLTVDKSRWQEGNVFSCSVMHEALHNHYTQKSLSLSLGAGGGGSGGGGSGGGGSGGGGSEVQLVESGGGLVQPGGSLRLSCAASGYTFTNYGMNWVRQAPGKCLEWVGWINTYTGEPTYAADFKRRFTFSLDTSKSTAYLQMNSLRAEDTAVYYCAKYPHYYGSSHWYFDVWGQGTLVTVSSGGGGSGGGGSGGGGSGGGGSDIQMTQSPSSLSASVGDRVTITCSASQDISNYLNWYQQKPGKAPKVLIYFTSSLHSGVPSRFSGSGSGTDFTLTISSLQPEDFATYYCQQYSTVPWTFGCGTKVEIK
light: DIQMTQSPSSLSASVGDRVTITCRASESVDNYGISFMNWYQQKPGKAPKLLIYAASNQGSGVPSRFSGSGSGTDFTLTISSLQPEDFATYYCQQSKEVPWTFGGGTKVEIKRTVAAPSVFIFPPSDEQLKSGTASVVCLLNNFYPREAKVQWKVDNALQSGNSQESVTEQDSKDSTYSLSSTLTLSKADYEKHKVYACEVTHQGLSSPVTKSFNRGEC
notes: light: CQ1-3/1-11 VL-kappa; also called H010-F9
**Q.** How did the EC50 [1] turn out when B1 was run?
**A.** 0.111 nM

**Q.** What about the EC50 [2] of the same binder?
**A.** 0.031 nM

**Q.** And the EC50 [3]?
**A.** 2.8 nM

**Q.** And the IC50 [4]?
**A.** 5 nM

**Q.** And the IC50 [5]?
**A.** ~0.002 nM

**Q.** What about the EC50 [6] of the same binder?
**A.** 1.38 nM

B2: HC010-F10 (trispecific antibody, human IgG4 S228P, kappa)
heavy: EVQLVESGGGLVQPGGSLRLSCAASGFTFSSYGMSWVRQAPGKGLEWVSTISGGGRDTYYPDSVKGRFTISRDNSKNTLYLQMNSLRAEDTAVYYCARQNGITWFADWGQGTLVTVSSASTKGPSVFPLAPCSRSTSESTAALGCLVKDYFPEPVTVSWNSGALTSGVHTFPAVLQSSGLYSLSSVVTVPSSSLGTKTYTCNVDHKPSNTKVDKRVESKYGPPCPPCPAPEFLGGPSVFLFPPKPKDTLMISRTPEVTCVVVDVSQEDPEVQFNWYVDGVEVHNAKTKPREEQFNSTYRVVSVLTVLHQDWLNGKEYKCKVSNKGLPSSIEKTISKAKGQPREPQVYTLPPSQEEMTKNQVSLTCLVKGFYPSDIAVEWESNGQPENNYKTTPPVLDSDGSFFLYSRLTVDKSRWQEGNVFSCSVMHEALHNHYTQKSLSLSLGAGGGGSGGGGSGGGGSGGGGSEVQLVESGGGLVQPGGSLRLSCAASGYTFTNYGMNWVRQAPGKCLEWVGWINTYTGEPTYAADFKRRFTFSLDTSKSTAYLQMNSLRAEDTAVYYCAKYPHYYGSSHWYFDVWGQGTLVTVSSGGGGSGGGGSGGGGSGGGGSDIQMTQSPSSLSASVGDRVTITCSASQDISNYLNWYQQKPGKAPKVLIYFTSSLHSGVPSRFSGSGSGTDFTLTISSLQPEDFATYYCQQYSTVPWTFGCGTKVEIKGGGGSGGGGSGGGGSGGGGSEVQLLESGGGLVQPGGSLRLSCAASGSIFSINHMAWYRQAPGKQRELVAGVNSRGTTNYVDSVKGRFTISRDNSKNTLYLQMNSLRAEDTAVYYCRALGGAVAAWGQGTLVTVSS
light: DIQMTQSPSSLSASVGDRVTITCRASESVDNYGISFMNWYQQKPGKAPKLLIYAASNQGSGVPSRFSGSGSGTDFTLTISSLQPEDFATYYCQQSKEVPWTFGGGTKVEIKRTVAAPSVFIFPPSDEQLKSGTASVVCLLNNFYPREAKVQWKVDNALQSGNSQESVTEQDSKDSTYSLSSTLTLSKADYEKHKVYACEVTHQGLSSPVTKSFNRGEC
notes: light: CQ1-3/1-11 VL-kappa; also called H010-F10
**Q.** Which results are given for B2?
**A.** EC50 [1]: 0.121 nM; EC50 [2]: 0.093 nM; EC50 [3]: 6.19 nM; IC50 [4]: 4.5 nM; IC50 [5]: 0.056 nM; EC50 [6]: 1.37 nM
